Source: article doi:10.1101/2021.06.29.450403 (bioRxiv, 2021)
Values belong to the binder of their own block, whether it stands above or below them.

What was measured:
[1] = molecular target: recombinant rAQP4ct protein (complete cytosolic C-terminal domain of human AQP4, residues 254-323) (human, UniProt P55087-1 254-323); assay: steady-state intrinsic Trp fluorescence
Chicken calmodulin (CaM) [2] = molecular target: T1, Chicken calmodulin (CaM) (chicken, UniProt P62149 1-149); assay: NMR titration
Chicken calmodulin (CaM) [3] = molecular target: T1, Chicken calmodulin (CaM); assay: steady-state intrinsic Trp fluorescence

binding result [1]: binds
B1: CaM bound AQP4nt-W30A peptide (complex)
chain 1: […]
chain 2: PTARRWGKSGPLSTRENIMVAFKGVAT

Kd (Chicken calmodulin (CaM) [2]): 3.4 µM
stoichiometry N (Chicken calmodulin (CaM) [2]): 1
Binder: Ac-TARRWGKSGPLSTRENIMVAFKGVWT-NH2 [human AQP4nt synthetic peptide (residues 6-31, two Cys modified to Ser)]

binding result (Chicken calmodulin (CaM) [2]): binds
Binder: PTARRWGKSGPLSTR [recombinant rAQP4nt6-19 truncated peptide]

apparent Kd, C-lobe of CaM (first binding event) (Chicken calmodulin (CaM) [2]): 3.6 µM
apparent Kd, N-lobe of CaM (second binding event) (Chicken calmodulin (CaM) [2]): 114 µM
stoichiometry N (Chicken calmodulin (CaM) [2]): 2
Binder: Ac-VEFKRRFKEAFSKAAQQTKGSYMEV-NH2 [human AQP4ct synthetic peptide (residues 256-280)]

binding result (Chicken calmodulin (CaM) [3]): binds
Binder: PTARRWGKSGPLSTRENIMVAFKGVAT [recombinant rAQP4ntW30A peptide]
